Experimental data taken from patent US20140213513A1 (Sanofi, priority 2012, published 2014).
*1 amine or outer side, *2 acyl side, *3 side chain or, on linkers, in order; H or OH if unused. Where no end group is shown, it is not given here. Side-chain parts run from the residue outwards. [ ]: non-standard residue; d: D form. The star is where a group is joined. γGlu = O=C(O)[C@H](CCC(=O)[*:2])N[*:1]; Stearoyl = CCCCCCCCCCCCCCCCCC(=O)*; Palmitoyl = CCCCCCCCCCCCCCCC(=O)*; Aib = CC(C)(N)C(=O)O

T1: human GIP receptor (human, UniProt P48546 22-466)
T1 sequence (looked up): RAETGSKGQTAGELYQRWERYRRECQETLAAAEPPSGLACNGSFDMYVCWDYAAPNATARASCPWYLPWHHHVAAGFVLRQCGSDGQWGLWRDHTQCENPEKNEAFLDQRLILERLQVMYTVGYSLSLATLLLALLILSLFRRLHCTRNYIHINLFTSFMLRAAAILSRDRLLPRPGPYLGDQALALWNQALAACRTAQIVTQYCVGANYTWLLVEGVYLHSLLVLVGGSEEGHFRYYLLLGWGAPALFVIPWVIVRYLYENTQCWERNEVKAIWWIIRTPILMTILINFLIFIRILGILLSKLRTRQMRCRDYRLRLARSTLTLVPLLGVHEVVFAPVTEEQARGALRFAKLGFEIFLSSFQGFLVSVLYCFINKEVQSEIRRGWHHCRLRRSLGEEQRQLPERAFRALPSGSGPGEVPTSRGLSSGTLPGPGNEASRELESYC


Assays:
Experiment in all cases: cell-based or functional assay
human GLP-1 receptor = human GLP-1 receptor (human, UniProt P43220 24-463)
human GIP receptor = target: T1, human GIP receptor
human glucagon receptor = human glucagon receptor (human, UniProt P47871 26-477)
Chain of human glucagon receptor (P47871 26-477): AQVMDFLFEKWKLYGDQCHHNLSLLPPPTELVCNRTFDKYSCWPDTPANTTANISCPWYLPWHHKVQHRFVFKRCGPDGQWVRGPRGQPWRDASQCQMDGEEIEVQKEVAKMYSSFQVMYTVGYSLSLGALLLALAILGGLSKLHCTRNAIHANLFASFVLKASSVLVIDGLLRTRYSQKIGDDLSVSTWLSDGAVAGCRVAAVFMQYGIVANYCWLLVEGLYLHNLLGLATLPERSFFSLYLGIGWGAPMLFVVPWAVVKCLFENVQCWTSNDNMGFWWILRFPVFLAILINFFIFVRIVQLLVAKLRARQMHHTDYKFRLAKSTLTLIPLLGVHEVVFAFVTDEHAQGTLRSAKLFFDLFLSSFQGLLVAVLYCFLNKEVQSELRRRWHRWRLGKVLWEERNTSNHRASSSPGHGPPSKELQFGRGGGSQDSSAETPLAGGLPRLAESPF

| Binder | EC50 hGLP-1 R (human GLP-1 receptor) | EC50 hGIP R (human GIP receptor) | EC50 hGLUC R (human glucagon receptor) |
| --- | --- | --- | --- |
| Y[Aib]QGTFTSDLSKQK([γGlu-Stearoyl])DEEAARLFIEWLKAGGPSSGAPPPS-NH2 (N-terminus assumed; SMILES CCCCCCCCCCCCCCCCCC(=O)N[C@@H](CCC(=O)NCCCC[C@H](NC(=O)[C@H](CCC(N)=O)NC(=O)[C@H](CCCCN)NC(=O)[C@H](CO)NC(=O)[C@H](CC(C)C)NC(=O)[C@H](CC(=O)O)NC(=O)[C@H](CO)NC(=O)[C@@H](NC(=O)[C@H](Cc1ccccc1)NC(=O)[C@@H](NC(=O)CNC(=O)[C@H](CCC(N)=O)NC(=O)C(C)(C)NC(=O)[C@@H](N)Cc1ccc(O)cc1)[C@@H](C)O)[C@@H](C)O)C(=O)N[C@@H](CC(=O)O)C(=O)N[C@@H](CCC(=O)O)C(=O)N[C@@H](CCC(=O)O)C(=O)N[C@@H](C)C(=O)N[C@@H](C)C(=O)N[C@@H](CCCNC(=N)N)C(=O)N[C@@H](CC(C)C)C(=O)N[C@@H](Cc1ccccc1)C(=O)N[C@H](C(=O)N[C@@H](CCC(=O)O)C(=O)N[C@@H](Cc1c[nH]c2ccccc12)C(=O)N[C@@H](CC(C)C)C(=O)N[C@@H](CCCCN)C(=O)N[C@@H](C)C(=O)NCC(=O)NCC(=O)N1CCC[C@H]1C(=O)N[C@@H](CO)C(=O)N[C@@H](CO)C(=O)NCC(=O)N[C@@H](C)C(=O)N1CCC[C@H]1C(=O)N1CCC[C@H]1C(=O)N1CCC[C@H]1C(=O)N[C@@H](CO)C(N)=O)[C@@H](C)CC)C(=O)O) [exendin-4 peptide analogue SEQ ID NO: 60] | 0.0053 nM | 0.0168 nM | 0.0091 nM |
| Y[Aib]EGTFTSDLSIQK([γGlu-Palmitoyl])EERAAHEFIEWLKR[Aib]GPSSGAPPPSK-NH2 (N-terminus assumed; SMILES CCCCCCCCCCCCCCCC(=O)N[C@@H](CCC(=O)NCCCC[C@H](NC(=O)[C@H](CCC(N)=O)NC(=O)[C@@H](NC(=O)[C@H](CO)NC(=O)[C@H](CC(C)C)NC(=O)[C@H](CC(=O)O)NC(=O)[C@H](CO)NC(=O)[C@@H](NC(=O)[C@H](Cc1ccccc1)NC(=O)[C@@H](NC(=O)CNC(=O)[C@H](CCC(=O)O)NC(=O)C(C)(C)NC(=O)[C@@H](N)Cc1ccc(O)cc1)[C@@H](C)O)[C@@H](C)O)[C@@H](C)CC)C(=O)N[C@@H](CCC(=O)O)C(=O)N[C@@H](CCC(=O)O)C(=O)N[C@@H](CCCNC(=N)N)C(=O)N[C@@H](C)C(=O)N[C@@H](C)C(=O)N[C@@H](Cc1c[nH]cn1)C(=O)N[C@@H](CCC(=O)O)C(=O)N[C@@H](Cc1ccccc1)C(=O)N[C@H](C(=O)N[C@@H](CCC(=O)O)C(=O)N[C@@H](Cc1c[nH]c2ccccc12)C(=O)N[C@@H](CC(C)C)C(=O)N[C@@H](CCCCN)C(=O)N[C@@H](CCCNC(=N)N)C(=O)NC(C)(C)C(=O)NCC(=O)N1CCC[C@H]1C(=O)N[C@@H](CO)C(=O)N[C@@H](CO)C(=O)NCC(=O)N[C@@H](C)C(=O)N1CCC[C@H]1C(=O)N1CCC[C@H]1C(=O)N1CCC[C@H]1C(=O)N[C@@H](CO)C(=O)N[C@@H](CCCCN)C(N)=O)[C@@H](C)CC)C(=O)O) [exendin-4 peptide analogue SEQ ID NO: 57] | 0.0071 nM | 0.0157 nM | 14.4 nM |
| Y[Aib]EGTFTSDLSIQK([γGlu-Stearoyl])ESKAAHEFIEWLKAGGPSSGAPPPSK-NH2 (N-terminus assumed; SMILES CCCCCCCCCCCCCCCCCC(=O)N[C@@H](CCC(=O)NCCCC[C@H](NC(=O)[C@H](CCC(N)=O)NC(=O)[C@@H](NC(=O)[C@H](CO)NC(=O)[C@H](CC(C)C)NC(=O)[C@H](CC(=O)O)NC(=O)[C@H](CO)NC(=O)[C@@H](NC(=O)[C@H](Cc1ccccc1)NC(=O)[C@@H](NC(=O)CNC(=O)[C@H](CCC(=O)O)NC(=O)C(C)(C)NC(=O)[C@@H](N)Cc1ccc(O)cc1)[C@@H](C)O)[C@@H](C)O)[C@@H](C)CC)C(=O)N[C@@H](CCC(=O)O)C(=O)N[C@@H](CO)C(=O)N[C@@H](CCCCN)C(=O)N[C@@H](C)C(=O)N[C@@H](C)C(=O)N[C@@H](Cc1c[nH]cn1)C(=O)N[C@@H](CCC(=O)O)C(=O)N[C@@H](Cc1ccccc1)C(=O)N[C@H](C(=O)N[C@@H](CCC(=O)O)C(=O)N[C@@H](Cc1c[nH]c2ccccc12)C(=O)N[C@@H](CC(C)C)C(=O)N[C@@H](CCCCN)C(=O)N[C@@H](C)C(=O)NCC(=O)NCC(=O)N1CCC[C@H]1C(=O)N[C@@H](CO)C(=O)N[C@@H](CO)C(=O)NCC(=O)N[C@@H](C)C(=O)N1CCC[C@H]1C(=O)N1CCC[C@H]1C(=O)N1CCC[C@H]1C(=O)N[C@@H](CO)C(=O)N[C@@H](CCCCN)C(N)=O)[C@@H](C)CC)C(=O)O) [exendin-4 peptide analogue SEQ ID NO: 58] | 0.0125 nM | 0.0086 nM | 16 nM |
| Y[Aib]QGTFTSDLSKQK([γGlu-Palmitoyl])DSKAAQDFIEWLKAGGPSSGAPPPS-NH2 (N-terminus assumed; SMILES CCCCCCCCCCCCCCCC(=O)N[C@@H](CCC(=O)NCCCC[C@H](NC(=O)[C@H](CCC(N)=O)NC(=O)[C@H](CCCCN)NC(=O)[C@H](CO)NC(=O)[C@H](CC(C)C)NC(=O)[C@H](CC(=O)O)NC(=O)[C@H](CO)NC(=O)[C@@H](NC(=O)[C@H](Cc1ccccc1)NC(=O)[C@@H](NC(=O)CNC(=O)[C@H](CCC(N)=O)NC(=O)C(C)(C)NC(=O)[C@@H](N)Cc1ccc(O)cc1)[C@@H](C)O)[C@@H](C)O)C(=O)N[C@@H](CC(=O)O)C(=O)N[C@@H](CO)C(=O)N[C@@H](CCCCN)C(=O)N[C@@H](C)C(=O)N[C@@H](C)C(=O)N[C@@H](CCC(N)=O)C(=O)N[C@@H](CC(=O)O)C(=O)N[C@@H](Cc1ccccc1)C(=O)N[C@H](C(=O)N[C@@H](CCC(=O)O)C(=O)N[C@@H](Cc1c[nH]c2ccccc12)C(=O)N[C@@H](CC(C)C)C(=O)N[C@@H](CCCCN)C(=O)N[C@@H](C)C(=O)NCC(=O)NCC(=O)N1CCC[C@H]1C(=O)N[C@@H](CO)C(=O)N[C@@H](CO)C(=O)NCC(=O)N[C@@H](C)C(=O)N1CCC[C@H]1C(=O)N1CCC[C@H]1C(=O)N1CCC[C@H]1C(=O)N[C@@H](CO)C(N)=O)[C@@H](C)CC)C(=O)O) [exendin-4 peptide analogue SEQ ID NO: 61] | 0.0024 nM | 0.0214 nM | 0.0061 nM |
| Y[Aib]EGTFTSDLSIQK([γGlu-Palmitoyl])EKRAAHEFIEWLKNTGPSSGAPPPS-NH2 (N-terminus assumed; SMILES CCCCCCCCCCCCCCCC(=O)N[C@@H](CCC(=O)NCCCC[C@H](NC(=O)[C@H](CCC(N)=O)NC(=O)[C@@H](NC(=O)[C@H](CO)NC(=O)[C@H](CC(C)C)NC(=O)[C@H](CC(=O)O)NC(=O)[C@H](CO)NC(=O)[C@@H](NC(=O)[C@H](Cc1ccccc1)NC(=O)[C@@H](NC(=O)CNC(=O)[C@H](CCC(=O)O)NC(=O)C(C)(C)NC(=O)[C@@H](N)Cc1ccc(O)cc1)[C@@H](C)O)[C@@H](C)O)[C@@H](C)CC)C(=O)N[C@@H](CCC(=O)O)C(=O)N[C@@H](CCCCN)C(=O)N[C@@H](CCCNC(=N)N)C(=O)N[C@@H](C)C(=O)N[C@@H](C)C(=O)N[C@@H](Cc1c[nH]cn1)C(=O)N[C@@H](CCC(=O)O)C(=O)N[C@@H](Cc1ccccc1)C(=O)N[C@H](C(=O)N[C@@H](CCC(=O)O)C(=O)N[C@@H](Cc1c[nH]c2ccccc12)C(=O)N[C@@H](CC(C)C)C(=O)N[C@@H](CCCCN)C(=O)N[C@@H](CC(N)=O)C(=O)N[C@H](C(=O)NCC(=O)N1CCC[C@H]1C(=O)N[C@@H](CO)C(=O)N[C@@H](CO)C(=O)NCC(=O)N[C@@H](C)C(=O)N1CCC[C@H]1C(=O)N1CCC[C@H]1C(=O)N1CCC[C@H]1C(=O)N[C@@H](CO)C(N)=O)[C@@H](C)O)[C@@H](C)CC)C(=O)O) [exendin-4 peptide analogue SEQ ID NO: 59] | 0.0075 nM | 0.0175 nM | 12.3 nM |
